{"source": "patent US20230265421", "tested_on": "T1, dFrCas9 (Faecalibaculum rodentium)", "T1 sequence": "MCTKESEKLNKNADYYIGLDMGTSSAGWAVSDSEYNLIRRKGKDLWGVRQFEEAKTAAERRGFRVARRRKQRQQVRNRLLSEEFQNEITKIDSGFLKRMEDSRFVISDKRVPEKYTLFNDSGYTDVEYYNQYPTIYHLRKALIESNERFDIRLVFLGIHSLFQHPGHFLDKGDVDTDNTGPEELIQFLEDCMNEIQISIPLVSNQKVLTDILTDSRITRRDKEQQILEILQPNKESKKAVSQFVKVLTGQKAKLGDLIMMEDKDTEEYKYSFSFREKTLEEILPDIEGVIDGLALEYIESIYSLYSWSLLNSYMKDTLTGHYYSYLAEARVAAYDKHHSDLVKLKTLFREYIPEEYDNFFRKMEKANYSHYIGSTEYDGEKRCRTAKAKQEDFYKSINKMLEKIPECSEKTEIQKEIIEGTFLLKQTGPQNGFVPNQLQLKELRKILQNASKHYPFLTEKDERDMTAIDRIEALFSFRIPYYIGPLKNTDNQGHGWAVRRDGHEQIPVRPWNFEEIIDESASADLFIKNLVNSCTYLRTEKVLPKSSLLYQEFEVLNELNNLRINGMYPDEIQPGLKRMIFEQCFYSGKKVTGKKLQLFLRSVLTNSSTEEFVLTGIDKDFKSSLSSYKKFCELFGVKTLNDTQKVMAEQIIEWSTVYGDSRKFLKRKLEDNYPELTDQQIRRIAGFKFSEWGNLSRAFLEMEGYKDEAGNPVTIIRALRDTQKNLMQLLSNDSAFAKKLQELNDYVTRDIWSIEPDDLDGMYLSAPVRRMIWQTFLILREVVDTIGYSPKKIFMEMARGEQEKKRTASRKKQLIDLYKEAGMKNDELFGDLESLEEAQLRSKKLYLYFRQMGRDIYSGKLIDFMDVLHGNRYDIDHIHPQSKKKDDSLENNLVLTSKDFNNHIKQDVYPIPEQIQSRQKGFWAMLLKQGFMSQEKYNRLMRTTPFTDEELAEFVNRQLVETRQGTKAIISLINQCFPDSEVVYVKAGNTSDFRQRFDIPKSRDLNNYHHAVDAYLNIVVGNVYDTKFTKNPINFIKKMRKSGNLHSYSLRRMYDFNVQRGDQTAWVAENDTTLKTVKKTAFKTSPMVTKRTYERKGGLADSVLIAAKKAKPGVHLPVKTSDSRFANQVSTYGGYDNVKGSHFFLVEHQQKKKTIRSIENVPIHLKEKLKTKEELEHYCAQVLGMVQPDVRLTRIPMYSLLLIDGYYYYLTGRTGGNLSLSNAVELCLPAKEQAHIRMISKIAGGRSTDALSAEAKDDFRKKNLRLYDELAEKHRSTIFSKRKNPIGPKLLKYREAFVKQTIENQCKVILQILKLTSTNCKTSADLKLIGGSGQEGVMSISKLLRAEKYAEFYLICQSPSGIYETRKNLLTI", "assay": "cell_activity", "details": "CRISPRi by binding TATA-box; PAM NNTA", "data": [{"substance": "ABCA1 TATA-box sgRNA ; ABCA1 TATA-box", "values": [{"measurement": "activity (% decrease of expression)", "result": 61.7}]}]}
